Experimental data taken from the supplement of paper PMC9170038.

System: MS2 coat protein
Assay: apparent KD of MS2 coat protein; designed switch direction (-1 OFF switch, 1 ON switch): 1; higher = weaker reporter binding
How it was run: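 An oligonucleotide input, 200 uM small-molecule ligand, or no input was present during titration of SNAP-549-labelled MS2 coat protein, which was doubled from 0.7 or 1.5 nM to 3 µM. Designed RNA switches had been transcribed on Illumina chips by stalled E. coli RNA polymerase. Apparent KD per design is the median over clusters of curves fitted to normalised cluster fluorescence.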

[1] = input ligand: microRNA oligo, concentration not stated
[2] = Eterna round: R95, input ligand: FMN 200 uM
[3] = Eterna round: R95, input ligand: microRNA oligo, concentration not stated
[4] = Eterna round: R95, input ligand: none

Sequence | apparent KD of MS2 coat protein (input ligand: FMN 200 uM) [nM] | apparent KD of MS2 coat protein [1] [nM] | apparent KD of MS2 coat protein (input ligand: none) [nM] | apparent KD of MS2 coat protein [2] [nM] | apparent KD of MS2 coat protein [3] [nM] | apparent KD of MS2 coat protein [4] [nM]
GCUACAUGAGGAUCACCCAUGUGUGCGUGGGAGUGAGUGGCUUAGGAUAUCUAUGACUUGAGUUGAGAGAAGGAGGGUUGCUGU [SS-NG3-LRO13] (Eterna round: R96, puzzle: Same State NG 3) | 70.9 | 53.6 | 79.3 |  |  | 
GGUCGGACUCACAUGAGGAUCACCCAUGUUGGCGAAAGCCGGCAGGAUAUCUGUCCGAAAAGGUCAGAGAAGGGCUAACCGACC [Fiskers NG3ss - 60] (Eterna round: R96, puzzle: Same State NG 3) | 65.7 | 186 | 188 |  |  | 
AGUCCAGCCUGAGCUGGACAAGAGCAUGUACAUGAGGAUCACCCAUGUCAUGUACAAGCUUUUUGCUCGUCUUAAAA [Zipper 46 - 2] (puzzle: Sensor for hsa-mir-208a) |  |  |  | 493 | 14.3 | 478
UAGGUUGAGCAAGGAUAUCCAAGAUUGAUUCGUAUCGACAUGAGGAUCACCCAUGUCCCGAGAAGGGAGAAGGUGCGUCCAACC [Eternabot solution 30] (Eterna round: R96, puzzle: Same State NG 2) | 15.4 | 27.9 | 42.3 |  |  | 
CUCUUACAUGAGGAUCACCCAUGUGUUGUCGUGGGAGGAUAUCCUGGUUCGGUGGCGUUGGGAGAAGGCCUAUGUC [× ×•×ª×• ×ž×“×™× ×” × ×—×ª-18] (puzzle: Same State 1) |  |  |  |  | 378 | 
UUGUAUCGAAAAGGAUAUCAUGGGCAACGGUACUGAGAAGGUUUCGAGCUCGAACGAGCAACAUGAGGAUCACCCAUGUCCGAG [Eternabot solution 50] (Eterna round: R96, puzzle: Same State NG 1) | 337 | 280 | 212 |  |  | 
GUGGUCAAUCAAGGAUAUGGAGCCUUAUUGGCUCCAGAAGGUGGGACAUGAGGAUCACCCAUGUGGCAGUGGUAAAAUGACCAC [Fiskers NG1ss - 37] (Eterna round: R96, puzzle: Same State NG 1) | 35.6 | 56.8 | 63.4 |  |  | 
GCUACCAUUGAUGCCUACAUGAGGAUCACCCAUGUAUGUAGGCAGGAUAUCGAUUGCUUUGCGAUCGAGAAGGGCUUAGGUAGC [JL SSNG3 1.31] (Eterna round: R96, puzzle: Same State NG 3) | 52.4 | 139 | 183 |  |  | 
AGUCCAGCCUGAGCUGGACAAAAGCAUGUACAUGAGGAUCACCCAUGUCAUGUACAAGCUUUUUGCUCGUUUUAAUA [Zipper 49 - 14] (puzzle: Sensor for hsa-mir-208a) |  |  |  | 509 | 14 | 679
GGUAGGUUACUACCAACACAUGAGGAUCACCCAUGUUAGUGGGAGGAUAUGGUACCUAUUUGGUACCAGAAGGCCUUGUUAAUU [Fiskers NG3ss - 14] (Eterna round: R96, puzzle: Same State NG 3) | 43.7 | 62.8 | 87.6 |  |  | 
AGAUCAUGACGAGGAUAUGGUACAUGAGGAUCACCCAUGUAUGUACCACGACGCGUACGUCGAAUCCAGAAGGCGUCAUGAUCA [Mat - Same State NG 2 - JL mod - D18] (Eterna round: R96, puzzle: Same State NG 2) | 21.6 | 92.8 | 150 |  |  | 
GGAGCUGGCACUGAGGAUAUUCAUAUUUAAACAUGAGGAUCACCCAUGUAGGCCAGAAGGCCUUGGGAGAAGGCAGGUCGGCUCG [salish99_ss2_r3_085] (puzzle: Same State 2) |  |  |  | 24.6 | 254 | 354
AGCGAAAUAAGCAAGGAUAUGUAAUUUGGCACAUGAGGAUCACCCAUGUCAAUCCAUUUUUUUGAACAGAAGGUGCAUUUUUUUU [ak second] (puzzle: Same State 2) |  |  |  | 48.6 | 53.5 | 45.4
AUGAAGAAUUAAGGAUAUUGAAUACAUAUGUUUAACAUGAGGAUCACCCAUGUGGGUUGCGGUAUCGAGAAGGUAAAUUAAUAG [Mat - same State NG 2 - JL mod - D90] (Eterna round: R96, puzzle: Same State NG 2) | 142 | 156 | 143 |  |  | 
GCCAACUCAUGAGGAUAUGGCACCUUAUUGGUGCCAGAAGGCAUGUCUAUUGACAUGAGGAUCACCCAUGUAUUAUUGUUGGCA [Fiskers NG1ss - 24] (Eterna round: R96, puzzle: Same State NG 1) | 80 | 717 | 893 |  |  | 
UUGGUGUAGAUACAGGAUAUGUUGAUUGUAACAUGAGGAUCACCCAUGUAUCUAUGAGAUUAAAUGCAGAAGGGUGCACAUCACU [salish99_ss2_r3_090] (puzzle: Same State 2) |  |  |  | 209 | 92.9 | 276

Sequence | apparent KD of MS2 coat protein (input ligand: FMN 200 uM) [nM] | apparent KD of MS2 coat protein [1] [nM] | apparent KD of MS2 coat protein (input ligand: none) [nM] | apparent KD of MS2 coat protein [2] [nM] | apparent KD of MS2 coat protein [3] [nM] | apparent KD of MS2 coat protein [4] [nM]
GGUCCAUCAUGAGGAUAUGGCACCUUAUUGGUGCCAGAAGGCAUGUCUAUAGACAUGAGGAUCACCCAUGUUAUAAAUUGGACC [Eli NG1ss - 92] (Eterna round: R96, puzzle: Same State NG 1) | 20 | 98.6 | 111 |  |  | 
AACAUGAGGAUCACCCAUGUCAGGUCGCCAACCUACAUGAGGAAGGAUAUAGCCUCGAAUAUUGGCUAGAAGGUCCUCAUGAAU [Tieson] (Eterna round: R96, puzzle: Same State NG 3) | 320 | 16.4 | 39.9 |  |  | 
UUAUCUCUUACAUGAGGAUCACCCAUGUUUUUAUGUCUUAGACAGGAUAUAGUAGUCUCGUUUUACUAGAAGGGUCUUUUUAUU [JR_SSNG3_Sub019] (Eterna round: R96, puzzle: Same State NG 3) | 28.9 | 39.8 | 51.4 |  |  | 
AAAGCCCGUGCUAAGGAUAUGCGUACUCCUACAUGAGGAUCACCCAUGUCCCGCCGAAAAGGAAGGCAGAAGGUAGCACGGGCAA [Letiso] (puzzle: Same State 2) |  |  |  | 48.3 | 114 | 126
GGUCCAGCCUGAGCUGGACAAAAGCAUGUACAUGAGGAUCACCCAUGUCAUGUACAAGCUUUUUGCUCGUCUUAAAG [Mat - hsa-mir-208a - 85] (puzzle: Sensor for hsa-mir-208a) |  |  |  | 195 | 18.1 | 367
UAGACAAGCUUUAUGUUCUUCCUAUUCCAACAUGAGGAUCACCCAUGUAGUCUGUCGAUUGUGAGUGUAGUUGAGAU [JR_SHM208A_Sub026] (puzzle: Sensor for hsa-mir-208a) |  |  |  | 57.8 | 52 | 61.9
GAGAGUGAAGUACAGGAUAUGAGGAGAGGAACAUGAGGAUCACCCAUGUGAAAUAGAGAGAAGAGUCAGAAGGGUAGGGAAGAGA [JR_SS2_Sub004] (puzzle: Same State 2) |  |  |  | 32.8 | 31.4 | 23
UGGUAACAUGAGGAUCACCCAUGUCAAAUGAAUCUAGGAUAUGGGAAAGGAGAAGAGAAACCAGAAGGAGAGGUUG [Altered State 1-14 - Jieux - Same State 1] (puzzle: Same State 1) |  |  |  | 179 | 63.1 | 107
UCUUGGUUUUUGCUCGUUUUUUGUGUUGAACAUGAGGAUCACCCAUGUAUUGUACGGUCCGAUUUAGUGAUGGUCCA [JMF 40] (puzzle: Sensor for hsa-mir-208a) |  |  |  | 36.9 | 18.4 | 42.5
GUGGUCAGACAUGAGGAUCACCCAUGUGGAAUAAAUAACAGACAGGAUAUCAAAUAUAGGAUAUAUGAGAAGGGUCGAUUGGUG (Eterna round: R96, puzzle: Same State NG 3) |  | 81 |  |  |  | 
GCUCGGCUGAUGGCCUACAUGAGGAUCACCCAUGUGAGUGGGCAGGAUAUCUAGAUUCAGGAUGUAGAGAAGGGCCUGCCGAGC [SameState NG3 #39] (Eterna round: R96, puzzle: Same State NG 3) | 1500 | 331 | 1190 |  |  | 
AGUCCAGCCUGAGCUGGACAAAAGCAUGUACAUGAGGAUCACCCAUGUUCGUGUACAAGCUUUUUGCUCGUCUUAAA [Zipper 52 - 5] (puzzle: Sensor for hsa-mir-208a) |  |  |  | 518 | 13.5 | 725
AAAGAAAACGCAGGAUAUCCCGGAAUGGAACCGGGAGAAGGGUGACCGGUACAUGAGGAUCACCCAUGUAGAGCAAAGGCUCAA [Oninqu] (Eterna round: R96, puzzle: Same State NG 1) | 78 | 114 | 124 |  |  | 
AGGCUCAGACGAGGAUAUAUGCGAUCACAUGAGGAUCACCCAUGUCUCGAGCUUCGGCUCGAGGCAUAGAAGGUGUCUGAGCCA [SSNG2/4-C1] (Eterna round: R96, puzzle: Same State NG 2) | 31.4 | 111 | 126 |  |  | 
GGAGCCAAGGCAGGAUAUUCAUACUAAUAACAUGAGGAUCACCCAUGUAAGGCCAGAAGGCCUUGGGAGAAGGGCCAUGGCUCG [Xeonanis - 13 mod3] (Eterna round: R96, puzzle: Same State NG 2) | 22 | 57.1 | 86.7 |  |  | 
